Measurements from US6521741 (FRANK KOENTGEN, dated 2003).

Biological target: T1, streptavidin (UniProt P22629 37-163, limits assumed)
T1 construct: Immobilised on column material; also called streptavidin column; streptavidin matrix
Assay: streptavidin column pull-down, SDS gel
Source text: FIG. 11 is a photographic representation of LHL purified via kappa-loaded streptavidin column as shown on a silver stained 20% w/v polyacrylamide SDS PHAST-gel. LHL= LHL alone plus streptavidin matrix; LHL-kappa=LHL purified on the kappa-loaded streptavidin matrix; kappa=kappa alone bound to streptavidin matrix.

T1 sequence (P22629 37-163 limits assumed): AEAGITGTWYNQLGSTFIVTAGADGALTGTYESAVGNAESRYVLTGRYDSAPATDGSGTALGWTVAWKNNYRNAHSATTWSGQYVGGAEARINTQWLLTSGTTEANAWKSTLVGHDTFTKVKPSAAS

B1: LHL (designed binder)
chain: APKDNTEEVTIKANLIFANGSTQTAEFKGTFEKATSEAYAYADTLKKDNGEYTVDVADKGYTLNIKFAGKEATNRNTDGSTDYGILQINSRWGGLTLKEEVTIKANLIFANGSTQTAEFKGTFEKATSEAYAYADTLKKDNGEYTVDVADKGYTLNIKFAG
notes: Expressed in E. coli from pASK75; LHL carries no strep-tag; also called growth factor LHL
- binding result: no binding
